Drawing on PMC3936712, this text covers Kd for 1 molecule.

Read-outs that look alike come from different tables or passages of the source.

Assay in all cases: fluorescence anisotropy
Data set [1] concerns the target T1, jRdRp (NS5 RdRp module, wt) (Japanese encephalitis virus strain …, UniProt O90417 2799-3432).
In data set [2] the target is T1, jRdRp (NS5 RdRp module, wt). The source holds these as a separate data set.
Data set [3] shares this target. This is another data set of the same source.

Usually Kd stands for the constant that tells how readily two partners part at equilibrium. A higher Kd goes with weaker binding. Turning to AUAAACUUCU (ssRNA) [10mer ssRNA (FR10)], the results for the Kd in data set [1], in data set [2] and in data set [3] were 39.3 ± 2.3 nM, 40.4 ± 2.1 nM and 33.9 ± 0.6 nM, respectively.
